Here are results for three molecules from US20210069339A1, “CNP PRODRUGS” (ASCENDIS PHARMA GROWTH DISORDERS A/S, priority 2015, published 2021).

Data set [1] has as its target T1, neutral endopeptidase (NEP) (Homo sapiens, UniProt P08473).
T1 construct: purchased Enzo Life Sciences GmbH, Lörrach, Germany
Put plainly: Digest of CNP variants by Neutral Endopeptidase in vitro. It is filed as in vitro ADME. Particulars: recombinant human neutral endopeptidase (NEP), pH 7.4, read-out: half life norm. (converted). An excerpt:
Samples were taken at different time intervals. […] The resulting reaction products were assigned using HPLC-MS.

The conditions of data set [2]: doses up to 15 μg/kg, healthy volunteers; cited from earlier work.
For data set [3] the following is noted: in vivo; cited from earlier work.
For data set [4] the following is noted: animal studies; cited from earlier work.
The conditions of data set [5]: after intravenous (iv) administration; cited from earlier work.

Where two headings read alike, the source gives them in different places. Bridges are numbered along the chain shown (N, C = ends). Where no end group is shown, it is not given here.

T1 sequence (P08473 whole entry): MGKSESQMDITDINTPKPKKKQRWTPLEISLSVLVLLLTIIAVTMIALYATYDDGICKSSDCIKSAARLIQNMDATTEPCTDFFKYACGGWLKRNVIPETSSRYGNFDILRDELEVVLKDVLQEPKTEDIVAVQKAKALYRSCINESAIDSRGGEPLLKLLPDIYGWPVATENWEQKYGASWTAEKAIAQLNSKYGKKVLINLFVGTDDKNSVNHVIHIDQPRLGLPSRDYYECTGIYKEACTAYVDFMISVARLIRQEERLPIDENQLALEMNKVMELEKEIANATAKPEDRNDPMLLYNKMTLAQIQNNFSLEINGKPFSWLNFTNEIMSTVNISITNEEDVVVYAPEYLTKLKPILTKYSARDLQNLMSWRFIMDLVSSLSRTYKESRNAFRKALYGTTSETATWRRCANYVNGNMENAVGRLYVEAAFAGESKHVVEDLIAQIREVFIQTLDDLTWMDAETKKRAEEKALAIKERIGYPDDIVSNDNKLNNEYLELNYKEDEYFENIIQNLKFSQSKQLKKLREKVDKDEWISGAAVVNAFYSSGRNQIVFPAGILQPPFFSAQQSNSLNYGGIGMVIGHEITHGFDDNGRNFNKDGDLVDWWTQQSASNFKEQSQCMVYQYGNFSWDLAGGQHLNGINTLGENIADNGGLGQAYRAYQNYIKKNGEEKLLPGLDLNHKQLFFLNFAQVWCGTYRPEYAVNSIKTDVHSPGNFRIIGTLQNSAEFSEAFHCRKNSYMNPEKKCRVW

With `CC[C@H](C)[C@@H]1NC(=O)[C@H](CCCNC(=N)N)NC(=O)[C@H](CC(=O)O)NC(=O)[C@H](CC(C)C)NC(=O)[C@H](CCCCN)NC(=O)[C@H](CC(C)C)NC(=O)CNC(=O)[C@H](Cc2ccccc2)NC(=O)[C@@H](NC(=O)CNC(=O)[C@H](CCCCN)NC(=O)[C@H](CO)NC(=O)[C@H](CC(C)C)NC(=O)CN)CSSC[C@@H](C(=O)O)NC(=O)CNC(=O)[C@H](CC(C)C)NC(=O)CNC(=O)[C@H](CO)NC(=O)[C@H](CCSC)NC(=O)[C@H](CO)NC(=O)CNC1=O` [CNP-22], the half-life (in general, the time needed for the level to fall by half in the phase considered) at 100 μg CNP equivalents/mL in data set [1] was 19.2 min.
Consider “BMN-111: modified recombinant human C-type Natriuretic Peptide where 17 amino acids have been added to form a 39 amino acid CNP pharmacological analog (PGQEHPNARKYKGANKKGLSKGCFGLKLDRIGSMSGLGC; disulfide 23-39; chains of the INN, looked up)”, for which, in data set [2], the cardiovascular effect result is “mild hypotension”. In data set [3], the half-life is 20 min. Also, the immunogenicity result in data set [4] was “immunological response”.
As for “CNP: C-type natriuretic peptide, as discussed in the background”, the half-life in data set [5] is recorded as 2 min.
